T1: BMP4 (human)
T1 chain: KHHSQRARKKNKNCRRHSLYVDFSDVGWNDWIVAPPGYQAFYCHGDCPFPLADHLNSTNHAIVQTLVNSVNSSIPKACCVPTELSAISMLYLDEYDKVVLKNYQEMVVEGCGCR

T2: BMP2 (Homo sapiens, UniProt P12643)
T2 sequence (P12643 283-396): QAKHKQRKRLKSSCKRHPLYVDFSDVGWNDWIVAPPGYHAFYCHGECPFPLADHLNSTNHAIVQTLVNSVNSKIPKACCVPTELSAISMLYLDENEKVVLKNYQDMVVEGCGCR

T3: BMP5 (Homo sapiens, UniProt P22003)
T3 sequence (P22003 317-454): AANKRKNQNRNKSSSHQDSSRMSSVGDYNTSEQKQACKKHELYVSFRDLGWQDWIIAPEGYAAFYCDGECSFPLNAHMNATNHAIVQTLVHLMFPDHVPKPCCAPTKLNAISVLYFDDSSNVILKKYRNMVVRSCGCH

T4: BMP6 (Homo sapiens, UniProt P22004)
T4 sequence (P22004 375-513): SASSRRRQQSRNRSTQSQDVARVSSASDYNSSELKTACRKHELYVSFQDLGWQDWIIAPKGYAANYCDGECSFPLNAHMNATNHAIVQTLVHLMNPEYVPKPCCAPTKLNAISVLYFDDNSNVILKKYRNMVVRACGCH

T5: BMP7 (Homo sapiens, UniProt P18075)
T5 sequence (P18075 293-431): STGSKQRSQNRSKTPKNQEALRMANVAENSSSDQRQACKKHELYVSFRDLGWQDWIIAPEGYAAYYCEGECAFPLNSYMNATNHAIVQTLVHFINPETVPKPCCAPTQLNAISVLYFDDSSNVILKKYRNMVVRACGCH

B1: hNoggin (protein)
chain: QHYLHIRPAPSDNLPLVDLIEHPDPIFDPKEKDLNETLLRSLLGGHYDPGFMATSPPEDRPGGGGGAAGGAEDLAELDQLLRQRPSGAMPSEIKGLEFSEGLAQGKKQRLSKKLRRKLQMWLWSQTFCPVLYAWNDLGSRFWPRYVKVGSCFSKRSCSVPEGMVCKPSKSVHLTVLRWRCQRRGGQRCGWIPIQYPIISECKCSC
B2: C8E7: E7 linked to C8, hetero-dimer VHH bihead (protein)
chain: EVQLVESGGGLVQAGGSLRLSCAASGRTFRINDMGWYRQAPGKSRDMVARITSGGNTNYADSVKGRFTISRDNAKNTVYLQMNSLKPEDTAVYYCNADGLRFDSTRYRPFDSWGQGTQVTVSSGGGGSGGGGSEVQLVESGGGLVQAGGSLRLSCAASGSIRGFVAMAWYRQAPGKQREWVATVTNGGTLYGDSVKGRFTGSRDNAKNTVYLQMNSLKPEDTAVYYCALRQIGASGYDYWGQGTQVTVSS

Columns and labels:
HT29 cells = assay: Chemosensitivity / cell viability (Presto Blue); format: cell-based, human
Protocol: We wanted to determine whether this effect could be attributable to BMP4 that is being secreted by the cancer cells, and if therefore, could be inhibited by our BMP4-specific VHHs. A panel of colorectal cancer cells was tested for the presence of active BMPs in their conditioned media (FIG. 28A). To that end, the C2C12 cells were cultured with supernatants from different cancer cell lines. When normalized for the BMPs present in normal fetal calf serum, we found a high variability in BRE-luciferase activity across cell lines. […] One of those cell lines, HT29, was used to test the effect of BMP4 inhibition in terms of proliferation. No effect was observed when cultured with the VHHs or Noggin alone (data not shown).
HT29 cells were plated in 96-well plates at a density of 10,000 cells per well. […] The VHHs or Noggin were added at the same time at a concentration of 500 ng/ml. Cell viability was measured by adding the Presto Blue Reagent (Invitrogen) for 2 hours at 37° C., after which absorbance was measured at […].

BMP4 = target: T1, BMP4; assay: SPR
BMP2 = target: T2, BMP2; assay: BMP specificity of VHH antibodies (summary of binding and inhibition of BMP function); design: key: ●▪: Binding and inhibition of BMP function.; ●□: Binding, but no inhibition.; ○: No binding; details: summary of SPR and functional experiments
Excerpt: (§1) Thus, we have generated several VH Hs that can be classified into four groups (Table 3): BMP4, BMP2/4, BMP2/4/5 and BMP2/4/5/6-specific.

BMP5 = target: T3, BMP5; assay: as above; design: key: ●▪: Binding and inhibition of BMP function.; ●□: Binding, but no inhibition.; ○: No binding; details: summary of SPR and functional experiments
Excerpt: as §1

BMP6 = target: T4, BMP6; assay: as above; design: key: ●▪: Binding and inhibition of BMP function.; ●□: Binding, but no inhibition.; ○: No binding; details: summary of SPR and functional experiments
Excerpt: as §1

BMP7 = target: T5, BMP7; assay: as above; design: key: ●▪: Binding and inhibition of BMP function.; ●□: Binding, but no inhibition.; ○: No binding; details: summary of SPR and functional experiments
Excerpt: as §1

endogenous BMP activity = assay: BRE-luciferase activity of supernatants of mouse intestinal organoid cultures; format: cell-based; details: supernatants of day 3; C4C4 100 ng/ml, C8C8 500 ng/ml or 5 μg/ml
Protocol: Finally, the VHHs were tested in an intestinal organoid culture system for their ability to neutralize the function of BMP4 ex vivo. Inhibition of BMP activity is one of the requirements to maintain Intestinal Stem Cells in vitro cultured as “organoids” that mimic crypt-villus structures and is usually provided by the addition of Noggin to the media. Murine small intestine organoids were cultured in the presence or absence of the VHH biheads and compared to Noggin. To precisely determine which BMPs are present in these cultures, BMP secretion was measured in the conditioned media of intestinal organoids grown without Noggin for three days. Whereas BMP2, BMP4 and BMP6 could be detected by ELISA (FIG. 14A), BMP5 levels were negative, most likely due to the low sensitivity of the ELISA assay (>250 pg/mL), and not due to the lack of BMP5 in these cultures. Indeed, analysis of the protein lysates of these organoids, detected the presence of BMP2, BMP4, BMP5 and BMP6 (FIG. 14B). Next, freshly isolated crypts from murine small intestines were cultured with the VHHs and tested for their ability to provide endogenous BMP inhibition and to sustain organoid cultures ex vivo. […]
Organoids were cultured as previously described (Sato et al., 2009). […] Crypts were counted and resuspended in matrigel. […]

Molecule	chemosensitivity (cell viability) in combination with Carboplatin, 5′FU or Oxaliplatin (HT29 cells; 500 ng/ml, 48 hours)	effect on HT29 proliferation, alone (HT29 cells; without chemotherapy (data not shown))	Kd (BMP4)	BMP2: binding and inhibition of BMP function (BMP2)	BMP5: binding and inhibition of BMP function (BMP5)	BMP6: binding and inhibition of BMP function (BMP6)	BMP7: binding and inhibition of BMP function (BMP7)	inhibition of endogenous BMP activity ex vivo (BRE-luciferase activity of organoid supernatants) (endogenous BMP activity)
B1	not as effective as observed for C4C4 or C8C8	No effect	91 pM	–	–	–	–	–
B2	–	–	–	●▪	●▪	●□	●□	to the same level as the natural inhibitor Noggin

— US10280218B2, “Antibodies binding to BMP4, and uses thereof” (ACADEMISCH MEDISCH CENTRUM, priority 2014, dated 2019)
